Measurements published in patent US6585979.

Key:
[1] = molecular target: MN-rgp120 (herpes simplex virus type 1; HIV-1, MN strain); test: capture ELISA, MAb at 2 ug/ml (reference)
[2] = molecular target: MN-rgp120 (herpes simplex virus type 1; HIV-1, MN strain); test: capture ELISA (FIG. 5C)
[3] = molecular target: rgp120 from breakthrough virus clone C11.5 (herpes simplex virus type 1; HIV-1, breakthrough virus of vaccinee C11); test: capture ELISA, MAb at 2 ug/ml
[4] = molecular target: rgp120 from breakthrough virus clone C6.1 (herpes simplex virus type 1; HIV-1, breakthrough virus of vaccinee C6); test: capture ELISA, MAb at 2 ug/ml
[5] = molecular target: rgp120 from breakthrough virus clone C17.3 (herpes simplex virus type 1; HIV-1, breakthrough virus of vaccinee C17); test: capture ELISA, MAb at 2 ug/ml
[6] = molecular target: rgp120 from breakthrough virus clone C7.2 (herpes simplex virus type 1; HIV-1, breakthrough virus of vaccinee C7); test: capture ELISA, MAb at 2 ug/ml
[7] = molecular target: rgp120 from breakthrough virus clone C10.7 (herpes simplex virus type 1; HIV-1, breakthrough virus of vaccinee C10); test: capture ELISA, MAb at 2 ug/ml
[8] = molecular target: rgp120 from breakthrough virus clone C15.2 (herpes simplex virus type 1; HIV-1, breakthrough virus of vaccinee C15); test: capture ELISA, MAb at 2 ug/ml
[9] = molecular target: rgp120 from breakthrough virus clone C11.7 (herpes simplex virus type 1; HIV-1, breakthrough virus of vaccinee C11); test: capture ELISA, MAb at 2 ug/ml
[10] = molecular target: rgp120 from breakthrough virus clone C15.3 (herpes simplex virus type 1; HIV-1, breakthrough virus of vaccinee C15); test: capture ELISA, MAb at 2 ug/ml
[11] = molecular target: rgp120 from breakthrough virus clone C8.3 (herpes simplex virus type 1; HIV-1, breakthrough virus of vaccinee C8); test: capture ELISA, MAb at 2 ug/ml
[12] = molecular target: rgp120 from breakthrough virus clone C17.1 (herpes simplex virus type 1; HIV-1, breakthrough virus of vaccinee C17); test: capture ELISA, MAb at 2 ug/ml
[13] = molecular target: rgp120 from breakthrough virus clone C6.5 (herpes simplex virus type 1; HIV-1, breakthrough virus of vaccinee C6); test: capture ELISA, MAb at 2 ug/ml
[14] = molecular target: rgp120 from breakthrough virus clone C10.5 (herpes simplex virus type 1; HIV-1, breakthrough virus of vaccinee C10); test: capture ELISA, MAb at 2 ug/ml
[15] = molecular target: rgp120 from breakthrough virus clone C8.6 (herpes simplex virus type 1; HIV-1, breakthrough virus of vaccinee C8); test: capture ELISA, MAb at 2 ug/ml

Row | Substance | relative reactivity (OD ratio to MN-rgp120) [1] | fold greater binding than to any of the breakthrough virus envelope proteins [2] [fold] | relative reactivity (OD ratio to MN-rgp120) [3] | relative reactivity (OD ratio to MN-rgp120) [4] | relative reactivity (OD ratio to MN-rgp120) [5] | relative reactivity (OD ratio to MN-rgp120) [6] | relative reactivity (OD ratio to MN-rgp120) [7] | relative reactivity (OD ratio to MN-rgp120) [8] | relative reactivity (OD ratio to MN-rgp120) [9] | relative reactivity (OD ratio to MN-rgp120) [10] | relative reactivity (OD ratio to MN-rgp120) [11] | relative reactivity (OD ratio to MN-rgp120) [12] | relative reactivity (OD ratio to MN-rgp120) [13] | relative reactivity (OD ratio to MN-rgp120) [14] | relative reactivity (OD ratio to MN-rgp120) [15]
1 | MAb 50.1 (antibody) | 1 | 10 | 0 | 0.37 | 0.56 | 0.6 | 0.48 | 0.47 | 0 | 0.37 | 0.37 | 0.52 | 0.33 | 0.4 | 0.34
2 | MAb 15e (antibody) | 1 | – | 0.17 | 0.17 | 0.33 | 0.71 | 0.5 | 0.92 | 0.17 | 0.63 | 0.38 | 0.33 | 0.75 | 0.46 | 0.29
